Data: paper PMC3261159

Molecular target: 14-3-3ζ (UniProt P63104)
Assay: anti-HA co-IP, Myc Western blot
Details: reference: wild-type Myc-Stat3 (688–770); sites S727

Stat3 C-terminal region, 688-770 (from UniProt P40763) S727A
binding against the reference: lost
